Assay results taken from PMC8760323, “Single-chain tandem macrocyclic peptides as a scaffold for growth factor and cytokine mimetics” (Communications Biology, 2022).
One block for each molecule: values may come before it. Positions of bridges follow the written chain, without caps; N, C: chain ends. No end group written: not given here.

How the values were obtained:
human EPOR ectodomain-Fc = target: T1, human EPOR ectodomain-Fc (Homo sapiens, UniProt P19235); assay: SPR analysis, human EPOR ectodomain; format: binding; conditions: for binding against EPOR: exact dissociation constants not determinable, too slow dissociation
T1 construct: human EPOR ectodomain-Fc; purchased R&D Systems
T1 sequence (P19235 25-250 limits assumed): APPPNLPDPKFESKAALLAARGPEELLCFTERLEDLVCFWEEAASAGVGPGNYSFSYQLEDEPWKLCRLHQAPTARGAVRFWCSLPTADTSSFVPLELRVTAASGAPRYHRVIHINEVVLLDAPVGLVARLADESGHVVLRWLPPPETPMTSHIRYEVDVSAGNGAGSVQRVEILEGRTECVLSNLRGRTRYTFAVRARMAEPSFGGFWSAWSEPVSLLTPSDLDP
Protocol: (§1) Binding constants of the STaMPtides and monomeric macrocyclic peptides to their corresponding receptor ectodomains were determined by SPR analysis using Biacore T200 (Cytiva). HBS-EP + buffer (Cytiva) containing 0.1% dimethyl sulfoxide (DMSO; Sigma-Aldrich, St. Louis, MO, USA) was used as the running buffer. As ligands, recombinant human Met ectodomain-Fc and human EPOR ectodomain-Fc were immobilized to around 1000 response units on CM5 sensor chips using a human antibody capture kit (Cytiva). STaMPtides and monomeric macrocyclic peptides were injected in five concentrations at a flow rate of 30 μL/min using a single-cycle kinetics method. Binding constants were quantified by analysis of the 1:1 binding model.

EPOR = target: T2, EPOR (Homo sapiens, UniProt P19235); assay: EPOR-JAK2 functional assay (PathHunter); format: cell-based; conditions: for EPOR activation by serially diluted supernatants: decellularized supernatant; for EC50: purified, 3 h at room temperature, read-out: half-maximal effective concentration (EC50)
T2 sequence (P19235 25-508): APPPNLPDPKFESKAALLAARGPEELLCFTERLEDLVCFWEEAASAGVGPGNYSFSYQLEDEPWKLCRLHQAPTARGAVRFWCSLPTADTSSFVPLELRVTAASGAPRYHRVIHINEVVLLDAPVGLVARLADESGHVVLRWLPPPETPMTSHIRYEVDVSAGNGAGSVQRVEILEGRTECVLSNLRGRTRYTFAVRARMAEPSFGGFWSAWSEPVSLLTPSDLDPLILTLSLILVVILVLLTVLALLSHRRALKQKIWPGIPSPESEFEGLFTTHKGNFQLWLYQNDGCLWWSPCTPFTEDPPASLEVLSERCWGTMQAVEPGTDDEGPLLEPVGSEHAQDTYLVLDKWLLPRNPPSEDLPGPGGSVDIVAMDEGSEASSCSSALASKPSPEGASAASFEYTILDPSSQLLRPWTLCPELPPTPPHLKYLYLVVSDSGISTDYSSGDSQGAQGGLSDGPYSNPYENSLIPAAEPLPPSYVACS
Protocol: Agonistic activity against EPOR was assessed using the PathHunter® eXpress EpoR-JAK2 Functional Assay Kit (DiscoverX) according to the manufacturer’s instructions. Briefly, cells were seeded on a 96-well cell culture plate and incubated overnight in 5% CO2 at 37 °C. […] The cells were lysed with a substrate reagent, and chemiluminescence was detected using a Nivo plate reader (PerkinElmer).

[1] = target: T3, recombinant human Met ectodomain-Fc (Homo sapiens, UniProt P08581); assay: SPR analysis, human Met ectodomain; format: binding
T3 construct: recombinant human Met ectodomain-Fc; purchased R&D Systems
Protocol: as §1

Met = assay: Cell-based phospho-Met ELISA (HuCCT1 cells); set-up: species or system human; conditions: phospho-Met ELISA and Erk signaling reporter assay
Protocol: The phosphorylation level of Met was evaluated according to a previously reported method[6],[32], with slight modifications. In brief, HuCCT-1 cells at a density of 10,000 cells/well were seeded on 96-well cell culture plates and incubated overnight in 5% CO2 at 37 °C. The cells were stimulated by rhHGF, purified HGF mimetic STaMPtides, and monomeric aMD4dY for 10 min in a 5% CO2 incubator at 37 °C. Next, cells were fixed using 4% paraformaldehyde in phosphate-buffered saline (PBS) for 20 min. Cells were washed three times with PBS and blocked with 1% BSA and 0.02% Triton X-100 in PBS for 30 min at room temperature. Cells were incubated with 1:1000 diluted phospho-Met (Tyr1234/1235) (D26) XP Rabbit mAb (Cell Signaling Technology) supplemented with 1% BSA in PBS at 4 °C overnight. After washing three times with PBS, the cells were incubated with 1:1000 diluted […] HRP-linked IgG antibody (Cell Signaling Technology) supplemented with 1% BSA in PBS at room temperature for 3 h. Cells were washed four times with PBS and incubated with 100 μL TMB substrate for 30 min. The reaction was stopped with an equal volume of 0.2 N sulfuric acid, and absorbance was quantified at 450 nm by the Molecular Imager ChemiDoc XRS System (Bio-Rad).

[2] = target: T4, Recombinant human EPOR ectodomain-Fc (human, UniProt P19235 25-250); assay: SPR; Biacore T200; receptor ectodomain-Fc immobilised to around 1000 RU on CM5 chip by human antibody capture kit; peptides injected in five concentrations at 30 uL/min, single-cycle kinetics; HBS-EP+ buffer with 0.1% DMSO; 1:1 binding model; three runs (N 1-3) and their average
T4 construct: erythropoietin receptor (EPOR), human, ectodomain; Captured on the chip with a human antibody capture kit, by its Fc; also called EPOR-Fc; rhEPOR ectodomain-Fc; source: bought: R&D Systems
T4 sequence (looked up): T1 sequence (P19235 25-250 limits assumed)

[3] = target: T4, Recombinant human EPOR ectodomain-Fc; assay: SPR; Biacore T200; receptor ectodomain-Fc immobilised to around 1000 RU on CM5 chips with a human antibody capture kit; peptides injected in five concentrations at 30 uL/min, single-cycle kinetics; HBS-EP+ buffer with 0.1% DMSO; 1:1 binding model; mean and SD of triplicate experiments; conditions: both partners purified
hPBMCs = assay: Colony-forming assay; format: cell-based, human; conditions: at doses of 33 ng/mL or higher, 13 days
Protocol: Next, 1.1 mL of the mixture was seeded in a 6-well cell culture plate and cultured for 13 days in 5% CO2 at 37 °C. At day 13, colony numbers were counted, and images were taken by inverted microscopy and BZ-X fluorescence microscopy.

[4] = target: T5, Recombinant human Met ectodomain-Fc (human, UniProt P08581 25-932); assay: SPR; Biacore T200; receptor ectodomain-Fc immobilised to around 1000 RU on CM5 chips with a human antibody capture kit; peptides injected in five concentrations at 30 uL/min, single-cycle kinetics; HBS-EP+ buffer with 0.1% DMSO; 1:1 binding model; mean and SD of triplicate experiments; conditions: both partners purified
T5 construct: Met, receptor of hepatocyte growth factor, human, ectodomain; Captured on the chip with a human antibody capture kit, by its Fc; also called Met-Fc; source: bought: R&D Systems
T5 sequence (P08581 25-932): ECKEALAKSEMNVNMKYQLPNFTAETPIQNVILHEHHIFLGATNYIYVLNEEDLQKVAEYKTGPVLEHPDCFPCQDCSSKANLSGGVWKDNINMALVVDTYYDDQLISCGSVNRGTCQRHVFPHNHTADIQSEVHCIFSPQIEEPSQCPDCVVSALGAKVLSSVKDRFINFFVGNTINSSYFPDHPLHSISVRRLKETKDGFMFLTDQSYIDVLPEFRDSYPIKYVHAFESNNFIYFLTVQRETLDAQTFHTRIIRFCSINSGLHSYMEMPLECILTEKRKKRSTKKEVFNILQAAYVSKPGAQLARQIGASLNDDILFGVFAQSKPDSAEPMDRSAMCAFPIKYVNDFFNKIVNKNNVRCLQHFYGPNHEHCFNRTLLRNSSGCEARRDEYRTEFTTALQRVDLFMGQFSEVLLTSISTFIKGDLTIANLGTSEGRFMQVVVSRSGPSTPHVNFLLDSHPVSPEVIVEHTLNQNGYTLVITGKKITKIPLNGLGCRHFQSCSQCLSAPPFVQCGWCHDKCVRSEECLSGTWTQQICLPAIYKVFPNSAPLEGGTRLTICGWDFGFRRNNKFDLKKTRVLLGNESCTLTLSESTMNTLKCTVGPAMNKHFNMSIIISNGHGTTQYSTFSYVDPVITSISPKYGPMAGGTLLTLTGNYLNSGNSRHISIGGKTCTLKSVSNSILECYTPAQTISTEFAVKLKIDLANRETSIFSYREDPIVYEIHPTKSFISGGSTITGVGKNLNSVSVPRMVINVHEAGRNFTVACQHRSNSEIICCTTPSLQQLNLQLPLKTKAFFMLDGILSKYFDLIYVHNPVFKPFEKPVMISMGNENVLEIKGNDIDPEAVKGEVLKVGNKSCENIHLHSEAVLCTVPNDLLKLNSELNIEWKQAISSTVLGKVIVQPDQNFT

T3 sequence (P08581 25-932 limits assumed): as the sequence (P08581 25-932) above

Kd [2]: < 0.0104 nM
Kd [3]: < 0.013 nM
B1: EMP-PA22 (designed binder)
chain: AETGGLYACHMGPMTWVCQPLRGAAPAAPAPAAPAAPAPAAPAAPGGLYACHMGPMTWVCQPLRG
modifications: disulfide 9-18, 51-60 (inferred)
notes: Expressed with the CspB signal peptide of C. glutamicum ATCC13869; also called EMP-PA22 (STaMPtide); EPO mimetic STaMPtide; source: C. glutamicum YPS010, secreted into the supernatant, purified (RP-HPLC)

association rate higher than that of EMP35 (human EPOR ectodomain-Fc): 5–10 times
kd (human EPOR ectodomain-Fc; Table S1, Average of N 1-3): 1e-05 M⁻¹ s⁻¹
KD (human EPOR ectodomain-Fc; Table S1, N 1): 0.014 nM
kd (human EPOR ectodomain-Fc; Table S1, N 1): 1e-05 M⁻¹ s⁻¹
KD (human EPOR ectodomain-Fc; Table S1, N 2): 0.015 nM
kd (human EPOR ectodomain-Fc; Table S1, N 2): 1e-05 M⁻¹ s⁻¹
KD (human EPOR ectodomain-Fc; Table S1, N 3): 0.01 nM
kd (human EPOR ectodomain-Fc; Table S1, N 3): 1e-05 M⁻¹ s⁻¹
binding against EPOR (human EPOR ectodomain-Fc): strong binding potency
EPOR activation by serially diluted supernatants (EPOR): activated EPOR, even at high dilutions
EC50 (EPOR): 0.22 nM
B2: EMP-PA22: EPO mimetic STaMPtide, EMP35 dimerized with 22-amino-acid PA linker (peptide)
chain: B1 chain
modifications: disulfide 9-18, 51-60 (inferred)
erythroid colony formation efficiency (hPBMCs): equivalent to or higher than that of 10 ng/mL of rhEPO

Kd [4]: 45 nM
B3: aMD4dY (peptide)
peptide: CRQFNRRTHEVWNLDC-OH
modifications: disulfide 1-16; N-terminus assumed
SMILES: CC(C)C[C@@H]1NC(=O)[C@H](CC(N)=O)NC(=O)[C@H](Cc2c[nH]c3ccccc23)NC(=O)[C@H](C(C)C)NC(=O)[C@H](CCC(=O)O)NC(=O)[C@H](Cc2c[nH]cn2)NC(=O)[C@H]([C@@H](C)O)NC(=O)[C@H](CCCNC(=N)N)NC(=O)[C@H](CCCNC(=N)N)NC(=O)[C@H](CC(N)=O)NC(=O)[C@H](Cc2ccccc2)NC(=O)[C@H](CCC(N)=O)NC(=O)[C@H](CCCNC(=N)N)NC(=O)[C@@H](N)CSSC[C@@H](C(=O)O)NC(=O)[C@H](CC(=O)O)NC1=O
notes: also called aMD4dY (Monomer); monomeric aMD4dY; source: synthetic peptide (GenScript Japan)

Kd [2]: < 0.0887 nM
Kd [3]: < 0.5 nM
B5: EMP35 (peptide)
peptide: GGLYACHMGPMTWVCQPLRG
modifications: disulfide 6-15
notes: also called EMP35 (Monomer); monomeric EMP35; source: synthetic peptide (GenScript Japan)

Further lines, the molecule ahead of its results:

Molecule: AETGGLYACHMGPMTWVCQPLRGAAPAAPAPGGLYACHMGPMTWVCQPLRG (disulfide 9-18, 37-46) [EMP-PA8]
association rate higher than that of EMP35 (human EPOR ectodomain-Fc): 5–10 times
Kd (human EPOR ectodomain-Fc; Table S1, Average of N 1-3): 0.03 nM
kd (human EPOR ectodomain-Fc; Table S1, Average of N 1-3): 1e-05 M⁻¹ s⁻¹
KD (human EPOR ectodomain-Fc; Table S1, N 1): 0.034 nM
kd (human EPOR ectodomain-Fc; Table S1, N 1): 1e-05 M⁻¹ s⁻¹
KD (human EPOR ectodomain-Fc; Table S1, N 2): 0.026 nM
kd (human EPOR ectodomain-Fc; Table S1, N 2): 1e-05 M⁻¹ s⁻¹
KD (human EPOR ectodomain-Fc; Table S1, N 3): 0.03 nM
kd (human EPOR ectodomain-Fc; Table S1, N 3): 1e-05 M⁻¹ s⁻¹
binding against EPOR (human EPOR ectodomain-Fc): strong binding potency
EPOR activation by serially diluted supernatants (EPOR): activated EPOR, even at high dilutions
EC50 (EPOR): 0.022 nM

Molecule: aMD4dY: modified macrocyclic Met-binding peptide: aMD4 without N-terminal D-Tyr, disulfide instead of thioether linkage (CRQFNRRTHEVWNLDC-OH; disulfide 1-16; N-terminus assumed; SMILES CC(C)C[C@@H]1NC(=O)[C@H](CC(N)=O)NC(=O)[C@H](Cc2c[nH]c3ccccc23)NC(=O)[C@H](C(C)C)NC(=O)[C@H](CCC(=O)O)NC(=O)[C@H](Cc2c[nH]cn2)NC(=O)[C@H]([C@@H](C)O)NC(=O)[C@H](CCCNC(=N)N)NC(=O)[C@H](CCCNC(=N)N)NC(=O)[C@H](CC(N)=O)NC(=O)[C@H](Cc2ccccc2)NC(=O)[C@H](CCC(N)=O)NC(=O)[C@H](CCCNC(=N)N)NC(=O)[C@@H](N)CSSC[C@@H](C(=O)O)NC(=O)[C@H](CC(=O)O)NC1=O)
binding to human Met [1]: retained its binding capacity to human Met
kd ([1]; Table S1, Average of N 1-3): 0.045 M⁻¹ s⁻¹
KD ([1]; Table S1, N 1): 39 nM
kd ([1]; Table S1, N 1): 0.04 M⁻¹ s⁻¹
KD ([1]; Table S1, N 2): 53 nM
kd ([1]; Table S1, N 2): 0.05 M⁻¹ s⁻¹
KD ([1]; Table S1, N 3): 44 nM
kd ([1]; Table S1, N 3): 0.044 M⁻¹ s⁻¹
Met phosphorylation and Erk-SRE signaling activation (Met): did not activate Met

Molecule: CSCC[C@@H]1NC(=O)[C@H](Cc2c[nH]cn2)NC(=O)[C@@H](NC(=O)[C@H](C)NC(=O)[C@H](Cc2ccc(O)cc2)NC(=O)[C@H](CC(C)C)NC(=O)CNC(=O)CN)CSSC[C@@H](C(=O)N[C@@H](CCC(N)=O)C(=O)N2CCC[C@H]2C(=O)N[C@@H](CC(C)C)C(=O)N[C@@H](CCCNC(=N)N)C(=O)NCC(=O)O)NC(=O)[C@H](C(C)C)NC(=O)[C@H](Cc2c[nH]c3ccccc23)NC(=O)[C@H]([C@@H](C)O)NC(=O)[C@H](CCSC)NC(=O)[C@@H]2CCCN2C(=O)CNC1=O [EMP35, reference compound]
kd (human EPOR ectodomain-Fc; Table S1, Average of N 1-3): 1e-05 M⁻¹ s⁻¹
KD (human EPOR ectodomain-Fc; Table S1, N 1): 0.089 nM
kd (human EPOR ectodomain-Fc; Table S1, N 1): 1e-05 M⁻¹ s⁻¹
KD (human EPOR ectodomain-Fc; Table S1, N 2): 0.15 nM
kd (human EPOR ectodomain-Fc; Table S1, N 2): 1e-05 M⁻¹ s⁻¹
KD (human EPOR ectodomain-Fc; Table S1, N 3): 1.3 nM
kd (human EPOR ectodomain-Fc; Table S1, N 3): 1e-05 M⁻¹ s⁻¹
binding against EPOR (human EPOR ectodomain-Fc): strong binding potency
agonist potency weaker than STaMPtides (EPOR): ~ 1000 times

B4: EMP-PA8 (designed binder)
chain: AETGGLYACHMGPMTWVCQPLRGAAPAAPAPGGLYACHMGPMTWVCQPLRG
modifications: disulfide 9-18, 37-46 (inferred)
notes: Expressed with the CspB signal peptide of C. glutamicum ATCC13869; also called EMP-PA8 (STaMPtide); EPO mimetic STaMPtide; source: C. glutamicum YPS010, secreted into the supernatant, purified (RP-HPLC)
Kd [2]: < 0.0257 nM
Kd [3]: < 0.03 nM
